Each sequence was assayed on Saccharomyces cerevisiae (assay: transcriptional activation domain activity (GFP:mCherry ratio, weighted mean of sorted bins, harmonized to initial dataset scale) (arbitrary fluorescence ratio units); higher = stronger transcriptional activation). Settings: beta-estradiol 1 µM; induction time 4 h.
Procedure: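 53-aa protein tiles (fungal proteins plus yeast TF control tiles) fused C-terminally to a DBD-estrogen-binding domain-mCherry synthetic TF, integrated in S. cerevisiae (URA3 locus) with a GFP reporter. Cells were induced with 1 uM beta-estradiol for 4 h at 30 C, FACS-sorted into 8 bins by GFP:mCherry ratio and barcodes sequenced. Activity is the read-weighted mean bin fluorescence (GFP:mCherry), averaged over barcodes (median 12); tiles under 50 reads were discarded. New active-learning values were harmonized by linear fit onto the scale of the initial (Hummel et al.) dataset. The assay saturates at low and high signal.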

Point of comparison: “SGLPIQYLNGSVTYQDGWVWLPGDSTDINATVQDLEDMWDSMVLNFWPLMTLF”, “transcriptional activation domain activity” value 66100. Against it:
- MLYIIMKINLFMKVIMLFLVKLIVHYLMILLSLVLLLILLSSFIYICYILVLF — lower, 37800
- MAPETADKPSRRRHIKSRSGCKNCKKRKVKCGEERPSCRNCSRRGSLCDLADE — lower, 20400
- EGSSSGEEESSEEEEAAPRREDAAAARQKAADEMIEEQIKRDLAARAAGKKHW — lower, 30100
- SESDTDSEEEEIEEDEGAAETRPGIRLQREEKAVETGEITNRLAIVNIDWDHL — lower, 32000
- LRRGFSKLLLIDDLYVLDKHLRSDRLRDLLWSAYVRAIVPRLCLIAFNFCQPF — lower, 60800
- MGVLFFSFLPWSFRLFFSFFFYFGLFFFFEYDFVLFLVFCVLVIGPVWLLAGC — lower, 60200
- MGTLYPLVLPWFTGSYFLDIGIDFVFQKDTSYLGYILHTLHAPFLLSCLFLVL — lower, 65000
- PQHCLDLNFMMALLHTGYGMPLEREVKIAKKIKGNELGWCLGASLPLLSKESG — higher, 84000
- GKGHYVTFSFVMADIILGMSAPMLRICVCHCVPQRQRKSNIILLQIILLFYER — lower, 54500
- LLFTLLWLLFFFFFFLFLLFFFVVLVFVFFVVYFFILLLLFIVVDDEWVLLGL — lower, 45300
- RASEASVGTEGATDIPGDEKKKKRAPRKKPGEEENEAGRGKGRKRKGTNESSA — lower, 36200
- FLHLLKYIRPSFAFYFTILFWWCIQVQLLLQIIINRIRVIVPDRRHSRHIMIA — higher, 68800
- SGSNINNNDNVKLPSNFKNYYDPPMSSLDISMDVPDIFGSLDFFDYDLLFQND — higher, 179000
- ALKLLVDKVEDPKKNGPKFLKRAQLVVTGFNSQLKARSQRIGHFVNLLQVYLT — lower, 61600
- QQQQQQQQQQQQQQQQQSLDTLLHHYQSLLSKSDNAIAFDDNVSNSADHNGSN — lower, 22600
- KKGTIMTIASPSTVRRNMYDWLPSLFYFMPNSILGMWFDMTLPKLFFFLFLSQ — lower, 63400
- TAIVTVISTVMAIATVTATGIMSIIDTMSTTAIITAIAMDMVTESIMVITAIT — higher, 87500
- INPFFGFLPFFFFFLPHLLLHYLALFFYYYFWFVFFSVPYSCPLVFYLLVFFL — lower, 55200
- ILFIGGLFLIIAPQMTFHVPAYRIRLCEAACFLCRNFLVFLKRKSVAVIVEMF — lower, 59000
- FFFSSIFFIVFGGPGQLFFFFSILLFLYPISTFMRCIIHRVFLLFFAFFFFLF — lower, 29400
- STIHNLAELVFLEELCGFCCFSMRFVVFLDLFGTIILPATCVYIGYLIYVIAT — lower, 44600
- DTPFALHTLLIMHGHILLCENAKVSLDSSDTLNIFVPLVTVLINRLTNRKEYS — lower, 32800
- MTGFSFLLMTFFFFLFFLFFFFISLFLLFFPLFSSHSLFFRLLAICSGLWCSG — lower, 60000
- ALVADPEYQRELDYMANGKQLLVPLRYLLNLVWRYCHGAQTICFSFFLLHGRN — lower, 64200
- SVRHWELRVRAKYGRVLCRFLAQIEFDPFLLSDSSKRAILTVLRAVADIMVEC — lower, 42400
- MMDCRRRTGFQAFFLSFLSLVLSSFFLLCLFNPYVCVFFLIFHYRLTFSVIWS — lower, 49100
- LARVLTDFPMIFVMCTVFCIILYFMSGFAMEASKFWIFYLFVYVTTFCITALY — lower, 46200
- MISSAKLTLFAFFRSMQMQSISLGRNLKAFILRCVLLWPRILRSFRKVWSWYF — lower, 18200
- ENLRTVGLGSVRDICLRNASEQAILTIIDFPLRVLAMIAQIRTGLWVRNGFAI — lower, 53000
- RRDALRAQQQRDTHARHGAGAARKHGQPVCVRQHRGQLHLSEPVGGAAAAAVH — higher, 66200
- DQVMKIKPVQKQTTAGQRTRFKAVVVVGDSNGHVGLGVKTAKEVATAIRAAII — higher, 72700
- MLHSISTYLIFPLLYLFILSFNIYHFFFFSLKIITILIFLHTFVLLLFSWRKY — lower, 60400
- WAQERGVYANVFGYPGGVAWAMLVARICQLYPNAVSAVVIRKFFQIYSQWKWP — lower, 29700
- MAPSASAGGSGAAKPKKTRAKHACRECNSRRVKCNVTERQPCTNCAASGATCE — lower, 11700
- NIAQNMNQFRRQQVVYSPDTRKYSLLIREGRVGYPGVACMEIESTDPSLVVDK — lower, 35000
- ELLDELLARNKSLVILVLDQIFMFILAWNRDYDRYDIQKIIGLYYIQSNVSLF — lower, 52100
- AEPSIYSNLFLDARLPNNANSTTGLNDNDYNLDDTNNDNTNSMQSILEDFVSS — higher, 75100
- LIKKVKNEKQMYPILVCVLRLYDYVTHIMLIECQCEGIQSAFVSNQLSVKDTG — lower, 52700
- MGCICVILARCYCQTLNHFLTVLLLFRSVIFVLFLLFHFFVFVYVLFFFSFII — lower, 42000
- CGFVVFVIRWSTVSVGYLGIIRWLVICKKLQFSEIKRIMRVYFCHMALFIFTL — lower, 40900
- AKAAEAVVAPEADAEKAEEAVVEKPKSTKGRKRKADEEDAEEVAAEANGAEAA — lower, 28200
- MPNEESKPVDQAAQEAEASKAVEELKLDEGSASKGKSSKKDKIKNAISSISSS — lower, 26800
- ITVYMVIIIFCLFQFFLFLIIVGLVPRIDTTYFGWSCWGYGRIIFSWWISGSF — lower, 34400
- AQPKTEAPKKVAKPRAKKGEAAEGEVKKGGRGKKRSAEGEEKAEEKAEDKPAE — lower, 30600
- VPTVFMAIIQEFASFLYLYQMMCMWVWYYFQYYQMGLVQTIIILMAAFIRVFL — lower, 65400
- ALSSASSALSPLSGDPITTTETNKSYPLDSEQSLLEPDKTEEDAINQSKESNM — lower, 15300
- PFLLYTSGFLFMGATEEQMNLLTSAGVSHVSYILLLYSISFLLFLFVCMLLHL — lower, 33400
- PLLTLNGLNCFFSLIYLINLLYSLKLFLQYFFFCLPFHIFILLMHSFLYYIFY — lower, 62400
- MPSAATRPCVQCAAAASRYNCPQCRASTCSAPCSKAHKLRAHGSDAAAGPSSA — lower, 47500
- RQESSPRLPSPSHTQQRERNQTPCAARSSSSSPRRPRPQPQPSTSAPSSPASP — lower, 29400
- CSNIAEQADQCDFVKSYCDGFSGYYLMLYYCSPFWRPISIFILLSCLLMLFGA — lower, 30700
- DHLLKSLYMLIHTTLKCIKNLEFLGFYLFNSGFSSVFDECVFPYIRTLRCHQP — lower, 65000
- KFANNVSEMKKLGARDFEDILQNLIPVVDGLLDEPYNSWILTLLFRLAEWHAL — lower, 42400
- KALVDAIITSHNIIIVHNQLIWFPNIVFLMSLIPLHIAAMNLWMALDMLFCFC — lower, 52900
- MFRPYSKFVLPSFFDIVLIYIFQEFGREALIWCQLCLQRVLPFLGLYHMGEML — lower, 38500
- RRAVRPADADEREAVARVRPRARRRLGDVRDELDPRRGRRRVHGRIWGGVVRL — higher, 68000
- FGSDYTRFYMYMPHPSILPYILGDLFWTFWRGFIDMEMTSKTYLYLFFLLLPP — higher, 72300
- QGDTDADGNGHGTHCSGTIAGKKYGVAKKAHVYAVKVLRSNGSGTMADVIGGV — lower, 59600
- IVVVVSPGVLHVDVGITILYGEVIVGLRTGTKDVLLRWKIVQVERRWLGYTPE — lower, 30500
- GDADVDGNGHGTHCSGTIAGKKYGVSKKAKIYAVKVLRSNGSGTMADVVAGVE — lower, 59400
- MYYCLFSFLFFLFAFPCVFLLLFTVFFSPYFFFAGFFFYLSLSLLVCVWTIDE — lower, 41600
- PQRLDMIHFPLIYVGCVGVLLFNPFKIFFGSARMYFLNTMWRLAFSGFYHVEF — lower, 40000
- LYHALRLCLKFFVVSLVADPEFQRELDYFMKNKPWFIRWPAVFSLNMVWNYTK — lower, 42600
- YSHLFNLHTVVFDNYLLYHNAFLLFPLVFCVLPICAIFCFCGMLCNLNRLSGR — higher, 66600
- ILRCYLQYIFALTLVFFWLLYTLTCSISQFSRHLRSWTCWIFYSLYRRILFLG — lower, 56200
- PPYVVAPPVVCPYSPLIILFYMVTYFFLHCFRGLMGWLQFLALLLQSLMVGIP — lower, 28900
- FFLFLFFPFSFSFLFFSFFHFLPMLAHCYNGVTISVSLWFPLILASLFRPFLL — lower, 64300
- MLNNSSSFFVVVPIIYTLIHYLSMLFLFGCLIHLFPYIPTCILQLLLFLLYLY — lower, 44500
- MTIDVIHVTYFTFFFFIIVLIYAHLVIPYILDVELLTYFLNDAFKWNMLNMLF — lower, 50200
- HRQTTLSVALPCGELHIAYLVAGLLFHGATCDDIVVIMLCARILFSVCKIYYH — higher, 77100
- TVKEEEEEVKAKPAAAKVSRVRKAAAAKAQSEPEKDVAGPAPKTRAARTRAAS — lower, 48100
- MGPMMQQIQQPCGDCRGEGEIINAKDKCKACNARKVTQTRKVLEVHIDRGMKD — lower, 45700
- MNGLWCRDDILFYISFVLILFSSFSIFLLLLDRLRFLFSFLFFFFFWCFVFIV — lower, 45800
- DSATPHGSPRRWTPSSKLSPSVAPSSPSSSTSTSSSPKARSRSHSRTCSTEVQ — lower, 42200
- MVHIVVVLCIVFCLLLCFKRRAQQLSSYCHASLRYFNLPPNFHQYYEQRFILV — higher, 78400
- SRVMRHFSAVEAGCFLWIWILVRIEGGMLLVNLYLDTTRITSTILNLYTACTG — higher, 78500
- MNHTSRFFSPFFLFSLFLSFPSFLLPCFLLLFLFLPFLPPSLSLLSLILYKFW — lower, 31900
- GPLSDEKSVKVSTFSELIGNDWQSMNFDLENNSREVTLNATSLLNENRLNQDS — lower, 48600

— the supplement of paper PMC12636428
